Assay results from PMC9482650, “Quantitative fragmentomics allow affinity mapping of interactomes” (Nature Communications, 2022).

T1: CARD11, Q9BXL7
T1 sequence (Q9BXL7 662-765, limits assumed, looked up): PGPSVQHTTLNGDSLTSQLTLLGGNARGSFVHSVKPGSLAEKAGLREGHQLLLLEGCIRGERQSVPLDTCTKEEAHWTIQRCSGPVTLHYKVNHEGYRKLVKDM

T2: FRMPD1, Q5SYB0
T2 sequence (Q5SYB0 52-145, limits assumed, looked up): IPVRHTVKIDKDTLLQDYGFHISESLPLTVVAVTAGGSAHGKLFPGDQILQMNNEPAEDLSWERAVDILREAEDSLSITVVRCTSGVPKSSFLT

T3: SIPA1L2, Q9P2F8
T3 sequence (Q9P2F8 945-1036, limits assumed, looked up): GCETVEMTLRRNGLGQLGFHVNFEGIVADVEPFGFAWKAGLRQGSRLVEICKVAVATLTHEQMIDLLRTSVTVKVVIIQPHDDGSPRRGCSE

T4: DFNB31_1, Q9P202
T4 sequence (Q9P202 135-233, limits assumed, looked up): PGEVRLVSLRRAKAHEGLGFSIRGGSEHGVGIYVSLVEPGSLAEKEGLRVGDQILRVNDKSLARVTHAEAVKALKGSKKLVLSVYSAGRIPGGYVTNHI

T5: PARD3B_1, Q8TEW8
T5 sequence (Q8TEW8 196-299, limits assumed, looked up): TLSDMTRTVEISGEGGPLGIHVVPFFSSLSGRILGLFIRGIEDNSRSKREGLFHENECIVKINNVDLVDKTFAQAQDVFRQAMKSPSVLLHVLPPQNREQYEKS

T6: PDZD7_3, Q9H5P4
T6 sequence (Q9H5P4 857-944, limits assumed, looked up): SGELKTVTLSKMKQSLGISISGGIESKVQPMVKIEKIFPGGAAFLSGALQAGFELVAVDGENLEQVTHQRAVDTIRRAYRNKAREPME

T7: HTRA3, P83110
T7 sequence (P83110 354-453, limits assumed, looked up): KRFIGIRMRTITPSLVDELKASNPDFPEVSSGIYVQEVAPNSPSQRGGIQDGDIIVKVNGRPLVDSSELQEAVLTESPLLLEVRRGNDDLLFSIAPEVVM

T8: APBA2_2, Q99767
T8 sequence (Q99767 654-744, limits assumed, looked up): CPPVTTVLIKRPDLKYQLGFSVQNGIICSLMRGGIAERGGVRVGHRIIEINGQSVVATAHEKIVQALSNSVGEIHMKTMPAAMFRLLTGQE

T9: ARHGAP21, Q5T5U3
T9 sequence (Q5T5U3 45-169, limits assumed, looked up): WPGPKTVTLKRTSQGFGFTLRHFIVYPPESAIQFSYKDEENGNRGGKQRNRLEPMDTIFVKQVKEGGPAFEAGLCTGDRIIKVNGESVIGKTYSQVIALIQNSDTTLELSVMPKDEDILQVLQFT

T10: DFNB31_3, Q9P202
T10 sequence (Q9P202 811-907, limits assumed, looked up): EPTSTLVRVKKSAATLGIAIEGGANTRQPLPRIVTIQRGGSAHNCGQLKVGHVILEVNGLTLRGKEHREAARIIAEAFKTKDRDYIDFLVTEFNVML

T11: SNTG1, Q9NSN8
T11 sequence (Q9NSN8 52-150, limits assumed, looked up): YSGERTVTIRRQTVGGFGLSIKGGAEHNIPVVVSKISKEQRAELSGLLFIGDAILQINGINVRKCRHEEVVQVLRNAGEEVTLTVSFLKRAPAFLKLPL

T12: SNTA1, Q13424
T12 sequence (Q13424 82-180, limits assumed, looked up): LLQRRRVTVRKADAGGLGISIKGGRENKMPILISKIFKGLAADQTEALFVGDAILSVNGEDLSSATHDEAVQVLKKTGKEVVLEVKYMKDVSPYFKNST

T13: TJP3_3, O95049
T13 sequence (O95049 375-456, limits assumed, looked up): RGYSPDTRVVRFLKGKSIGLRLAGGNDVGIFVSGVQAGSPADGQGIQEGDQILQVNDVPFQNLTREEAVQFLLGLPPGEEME

B1: CSPG4, Q6UVK1 (peptide)
chain: PALKNGQYWV
B2: SLC17A1, Q14916 (peptide)
chain: WAKEKQHTRL

biological target: TJP1_2, Q07157; assay: holdup assay; set-up: key: below the threshold = too weak to quantify, mostly under pKd 3.1 to 4; conditions: plain residues with an end cap or a label only (N-terminal biotin on a linker: ado-ado)
Sequence (Q07157 181-274): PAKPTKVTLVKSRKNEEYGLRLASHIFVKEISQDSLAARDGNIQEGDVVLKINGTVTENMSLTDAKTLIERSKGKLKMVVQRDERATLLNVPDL

Row | pKd | Binder
1 | 4.69 | B1
2 | below the threshold | B2

biological target: T1, CARD11, Q9BXL7; assay: holdup assay; set-up: key: below the threshold = too weak to quantify, mostly under pKd 3.1 to 4; conditions: plain residues with an end cap or a label only (N-terminal biotin on a linker: ado-ado)

Row | pKd | Binder
3 | below the threshold | B1
4 | below the threshold | B2

biological target: MAGI1_2, Q96QZ7; assay: holdup assay; set-up: key: below the threshold = too weak to quantify, mostly under pKd 3.1 to 4; conditions: plain residues with an end cap or a label only (N-terminal biotin on a linker: ado-ado)
Sequence (Q96QZ7 456-580): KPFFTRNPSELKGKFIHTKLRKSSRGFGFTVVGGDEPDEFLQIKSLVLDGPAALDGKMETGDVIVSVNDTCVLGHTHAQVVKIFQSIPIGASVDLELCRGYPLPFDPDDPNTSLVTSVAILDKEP

Row | pKd | Binder
5 | below the threshold | B1
6 | 4.7 | B2

biological target: TJP2_1, Q9UDY2; assay: holdup assay; set-up: key: below the threshold = too weak to quantify, mostly under pKd 3.1 to 4; conditions: plain residues with an end cap or a label only (N-terminal biotin on a linker: ado-ado)
Sequence (Q9UDY2 24-128): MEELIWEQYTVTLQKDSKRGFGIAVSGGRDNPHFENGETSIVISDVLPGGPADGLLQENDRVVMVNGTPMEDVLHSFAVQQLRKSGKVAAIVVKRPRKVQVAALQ

Row | pKd | Binder
7 | 4.6 | B1
8 | 3.82 | B2

biological target: LIMK2, P53671; assay: holdup assay; set-up: key: below the threshold = too weak to quantify, mostly under pKd 3.1 to 4; conditions: plain residues with an end cap or a label only (N-terminal biotin on a linker: ado-ado)
Sequence (P53671 143-248): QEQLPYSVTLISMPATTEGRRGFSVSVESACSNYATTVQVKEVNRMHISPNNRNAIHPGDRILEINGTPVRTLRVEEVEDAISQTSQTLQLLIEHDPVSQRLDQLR

Row | pKd | Binder
9 | below the threshold | B1
10 | below the threshold | B2

biological target: T2, FRMPD1, Q5SYB0; assay: holdup assay; set-up: key: below the threshold = too weak to quantify, mostly under pKd 3.1 to 4; conditions: plain residues with an end cap or a label only (N-terminal biotin on a linker: ado-ado)

Row | pKd | Binder
11 | below the threshold | B1
12 | below the threshold | B2

biological target: T3, SIPA1L2, Q9P2F8; assay: holdup assay; set-up: key: below the threshold = too weak to quantify, mostly under pKd 3.1 to 4; conditions: plain residues with an end cap or a label only (N-terminal biotin on a linker: ado-ado)

Row | pKd | Binder
13 | below the threshold | B1
14 | below the threshold | B2

biological target: T4, DFNB31_1, Q9P202; assay: holdup assay; set-up: key: below the threshold = too weak to quantify, mostly under pKd 3.1 to 4; conditions: plain residues with an end cap or a label only (N-terminal biotin on a linker: ado-ado)

Row | pKd | Binder
15 | below the threshold | B1
16 | 3.65 | B2

biological target: T5, PARD3B_1, Q8TEW8; assay: holdup assay; set-up: key: below the threshold = too weak to quantify, mostly under pKd 3.1 to 4; conditions: plain residues with an end cap or a label only (N-terminal biotin on a linker: ado-ado)

Row | pKd | Binder
17 | 3.71 | B1
18 | 4.31 | B2

biological target: GORASP1, Q9BQQ3; assay: holdup assay; set-up: key: below the threshold = too weak to quantify, mostly under pKd 3.1 to 4; conditions: plain residues with an end cap or a label only (N-terminal biotin on a linker: ado-ado)
Sequence (Q9BQQ3 1-208): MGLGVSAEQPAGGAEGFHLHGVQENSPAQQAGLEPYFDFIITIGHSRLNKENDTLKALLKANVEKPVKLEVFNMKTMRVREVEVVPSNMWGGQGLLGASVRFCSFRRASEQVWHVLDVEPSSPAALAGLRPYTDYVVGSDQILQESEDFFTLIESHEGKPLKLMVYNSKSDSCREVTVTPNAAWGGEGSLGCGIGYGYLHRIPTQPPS

Row | pKd | Binder
19 | 5.29 | B1
20 | below the threshold | B2

biological target: T6, PDZD7_3, Q9H5P4; assay: holdup assay; set-up: key: below the threshold = too weak to quantify, mostly under pKd 3.1 to 4; conditions: plain residues with an end cap or a label only (N-terminal biotin on a linker: ado-ado)

Row | pKd | Binder
21 | below the threshold | B1
22 | 4.87 | B2

biological target: GRIP2_7, Q9C0E4; assay: holdup assay; set-up: key: below the threshold = too weak to quantify, mostly under pKd 3.1 to 4; conditions: plain residues with an end cap or a label only (N-terminal biotin on a linker: ado-ado)
Sequence (Q9C0E4 934-1023): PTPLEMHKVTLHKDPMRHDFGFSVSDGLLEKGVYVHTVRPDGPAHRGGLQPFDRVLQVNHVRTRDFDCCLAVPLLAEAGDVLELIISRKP

Row | pKd | Binder
23 | 5.83 | B1
24 | below the threshold | B2

biological target: T7, HTRA3, P83110; assay: holdup assay; set-up: key: below the threshold = too weak to quantify, mostly under pKd 3.1 to 4; conditions: plain residues with an end cap or a label only (N-terminal biotin on a linker: ado-ado)

Row | pKd | Binder
25 | 5.46 | B1
26 | below the threshold | B2

biological target: T8, APBA2_2, Q99767; assay: holdup assay; set-up: key: below the threshold = too weak to quantify, mostly under pKd 3.1 to 4; conditions: plain residues with an end cap or a label only (N-terminal biotin on a linker: ado-ado)

Row | pKd | Binder
27 | below the threshold | B1
28 | below the threshold | B2

biological target: PARD3_3, Q8TEW0; assay: holdup assay; set-up: key: below the threshold = too weak to quantify, mostly under pKd 3.1 to 4; conditions: plain residues with an end cap or a label only (N-terminal biotin on a linker: ado-ado)
Sequence (Q8TEW0 582-685): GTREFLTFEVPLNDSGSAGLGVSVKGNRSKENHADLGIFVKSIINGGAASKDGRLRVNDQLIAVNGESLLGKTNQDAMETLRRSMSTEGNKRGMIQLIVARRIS

Row | pKd | Binder
29 | 3.96 | B1
30 | below the threshold | B2

biological target: SCRIB_3, Q14160; assay: holdup assay; set-up: key: below the threshold = too weak to quantify, mostly under pKd 3.1 to 4; conditions: plain residues with an end cap or a label only (N-terminal biotin on a linker: ado-ado)
Sequence (Q14160 999-1103): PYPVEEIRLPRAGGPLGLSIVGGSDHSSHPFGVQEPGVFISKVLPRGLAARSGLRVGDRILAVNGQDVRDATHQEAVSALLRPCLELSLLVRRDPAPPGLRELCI

Row | pKd | Binder
31 | 3.58 | B1
32 | 4.11 | B2

biological target: T9, ARHGAP21, Q5T5U3; assay: holdup assay; set-up: key: below the threshold = too weak to quantify, mostly under pKd 3.1 to 4; conditions: plain residues with an end cap or a label only (N-terminal biotin on a linker: ado-ado)

Row | pKd | Binder
33 | below the threshold | B1
34 | 3.81 | B2

biological target: GRIP2_3, Q9C0E4; assay: holdup assay; set-up: key: below the threshold = too weak to quantify, mostly under pKd 3.1 to 4; conditions: plain residues with an end cap or a label only (N-terminal biotin on a linker: ado-ado)
Sequence (Q9C0E4 238-339): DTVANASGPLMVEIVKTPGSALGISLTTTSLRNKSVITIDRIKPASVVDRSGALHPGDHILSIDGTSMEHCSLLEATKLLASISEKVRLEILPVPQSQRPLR

Row | pKd | Binder
35 | below the threshold | B1
36 | below the threshold | B2

biological target: T10, DFNB31_3, Q9P202; assay: holdup assay; set-up: key: below the threshold = too weak to quantify, mostly under pKd 3.1 to 4; conditions: plain residues with an end cap or a label only (N-terminal biotin on a linker: ado-ado)

Row | pKd | Binder
37 | below the threshold | B1
38 | below the threshold | B2

biological target: T11, SNTG1, Q9NSN8; assay: holdup assay; set-up: key: below the threshold = too weak to quantify, mostly under pKd 3.1 to 4; conditions: plain residues with an end cap or a label only (N-terminal biotin on a linker: ado-ado)

Row | pKd | Binder
39 | below the threshold | B1
40 | below the threshold | B2

biological target: T12, SNTA1, Q13424; assay: holdup assay; set-up: key: below the threshold = too weak to quantify, mostly under pKd 3.1 to 4; conditions: plain residues with an end cap or a label only (N-terminal biotin on a linker: ado-ado)

Row | pKd | Binder
41 | below the threshold | B1
42 | 3.77 | B2

biological target: SCRIB_1, Q14160; assay: holdup assay; set-up: key: below the threshold = too weak to quantify, mostly under pKd 3.1 to 4; conditions: plain residues with an end cap or a label only (N-terminal biotin on a linker: ado-ado)
Sequence (Q14160 718-814): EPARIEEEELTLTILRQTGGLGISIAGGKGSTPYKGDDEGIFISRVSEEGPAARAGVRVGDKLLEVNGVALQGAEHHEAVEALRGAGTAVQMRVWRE

Row | pKd | Binder
43 | below the threshold | B1
44 | 4.21 | B2

biological target: NHERF4_2, Q86UT5; assay: holdup assay; set-up: key: below the threshold = too weak to quantify, mostly under pKd 3.1 to 4; conditions: plain residues with an end cap or a label only (N-terminal biotin on a linker: ado-ado)
Sequence (Q86UT5 220-308): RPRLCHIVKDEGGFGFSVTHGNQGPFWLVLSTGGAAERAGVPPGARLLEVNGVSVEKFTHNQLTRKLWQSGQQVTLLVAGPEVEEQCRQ

Row | pKd | Binder
45 | below the threshold | B1
46 | below the threshold | B2

biological target: T13, TJP3_3, O95049; assay: holdup assay; set-up: key: below the threshold = too weak to quantify, mostly under pKd 3.1 to 4; conditions: plain residues with an end cap or a label only (N-terminal biotin on a linker: ado-ado)

Row | pKd | Binder
47 | 4.81 | B1
48 | below the threshold | B2
